Assay [1] has as its target STAM(10-390) of the ΔCT construct (human, UniProt Q92783 10-390). As to the kind of experiment: AUC.
In assay [2] the target is bovine ubiquitin (bovine, UniProt P0CG53 1-76). As to the kind of experiment: SPR.

The Kd is the constant that tells how readily two partners part at equilibrium. Higher therefore signals weaker binding.

STAM(10-390) of the ΔCT construct, sequence (Q92783 10-390, stated change not applied): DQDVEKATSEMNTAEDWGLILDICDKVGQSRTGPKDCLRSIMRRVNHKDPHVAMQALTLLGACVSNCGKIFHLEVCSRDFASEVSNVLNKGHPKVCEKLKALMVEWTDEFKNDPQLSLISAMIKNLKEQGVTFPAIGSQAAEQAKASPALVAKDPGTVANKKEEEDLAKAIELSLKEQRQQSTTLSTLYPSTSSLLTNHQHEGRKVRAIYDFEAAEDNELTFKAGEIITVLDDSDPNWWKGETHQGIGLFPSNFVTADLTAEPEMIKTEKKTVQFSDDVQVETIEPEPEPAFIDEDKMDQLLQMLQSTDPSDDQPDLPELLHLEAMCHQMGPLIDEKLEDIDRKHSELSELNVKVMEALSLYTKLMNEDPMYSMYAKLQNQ

B1: Hrs(1-557) of the ΔCT construct (domain or fragment, human, UniProt O14964 1-557, looked up)
chain: MGRGSGTFERLLDKATSQLLLETDWESILQICDLIRQGDTQAKYAVNSIKKKVNDKNPHVALYALEVMESVVKNCGQTVHDEVANKQTMEELKDLLKRQVEVNVRNKILYLIQAWAHAFRNEPKYKVVQDTYQIMKVEGHVFPEFKESDAMFAAERAPDWVDAEECHRCRVQFGVMTRKHHCRACGQIFCGKCSSKYSTIPKFGIEKEVRVCEPCYEQLNRKAEGKATSTTELPPEYLTSPLSQQSQLPPKRDETALQEEEELQLALALSQSEAEEKERLRQKSTYTSYPKAEPMPSASSAPPASSLYSSPVNSSAPLAEDIDPELARYLNRNYWEKKQEEARKSPTPSAPVPLTEPAAQPGEGHAAPTNVVENPLPETDSQPIPPSGGPFSEPQFHNGESEESHEQFLKALQNAVTTFVNRMKSNHMRGRSITNDSAVLSLFQSINGMHPQLLELLNQLDERRLYYEGLQDKLAQIRDARGALSALREEHREKLRRAAEEAERQRQIQLAQKLEIMRQKKQEYLEVQRQLAIQRLQEQEKERQMRLEQQKQTVQMR
Turning to B1, the “stoichiometry N” value in assay [1] was 1 Hrs:STAM.

B2: his-tagged STAM VHS domain (residues 1-143) (domain or fragment)
chain: not shown
B2 showed a Kd in assay [2] of 157 µM.
